Laboratory results as given in IntAct's records for PubMed 25910212.

B1: Acetylcholine receptor subunit gamma (Homo sapiens), P07510-2 (parent)
chain: MHGGQGPLLLLLLLAVCLGAQGRNQEERLLADLMQNYDPNLRPAERDSDVVNVSLKLTLTNLISLNEREEALTTNVWIEMQWCDYRLRWDPRDYEGLWVLRVPSTMVWRPDIVLENKSQTYSTNEIDLQLSQEDGQTIEWIFIDPEAFTENGEWAIQHRPAKMLLDPAAPAQEAGHQKVVFYLLIQRKPLFYVINIIAPCVLISSVAILIHFLPAKAGGQKCTVAINVLLAQTVFLFLVAKKVPETSQAVPLISKYLTFLLVVTILIVVNAVVVLNVSLRSPHTHSMARGVRKVFLRLLPQLLRMHVRPLAPAAVQDTQSRLQNGSSGWSITTGEEVALCLPRSELLFQQWQRQGLVAAALEKLEKGPELGLSQFCGSLKQAAPAIQACVEACNLIACARHQQSHFDNGNEEWFLVGRVLDRVCFLAMLSLFICGTAGIFLMAHYNRVPALPFPGDPRPYLPSPD
partner: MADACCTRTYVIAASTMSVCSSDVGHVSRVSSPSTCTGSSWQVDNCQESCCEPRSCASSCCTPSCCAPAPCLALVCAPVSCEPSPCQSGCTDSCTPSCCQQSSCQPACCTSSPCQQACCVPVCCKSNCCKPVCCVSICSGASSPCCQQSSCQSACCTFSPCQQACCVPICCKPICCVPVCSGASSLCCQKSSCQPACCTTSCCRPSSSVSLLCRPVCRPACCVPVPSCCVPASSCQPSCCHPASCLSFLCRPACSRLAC
B2: Ketohexokinase (Homo sapiens), P50053-2 (parent)
chain: MEEKQILCVGLVVLDVISLVDKYPKEDSEIRCLSQRWQRGGNASNSCTVLSLLGAPCAFMGSMAPGHVADFVLDDLRRYSVDLRYTVFQTTGSVPIATVIINEASGSRTILYYDRSLPDVSATDFEKVDLTQFKWIHIEGRNASEQVKMLQRIDAHNTRQPPEQKIRVSVEVEKPREELFQLFGYGDVVFVSKDVAKHLGFQSAEEALRGLYGRVRKGAVLVCAWAEEGADALGPDGKLLHSDAFPPPRVVDTLGAGDTFNASVIFSLSQGRSVQEALRFGCQVAGKKCGLQGFDGIV
partner: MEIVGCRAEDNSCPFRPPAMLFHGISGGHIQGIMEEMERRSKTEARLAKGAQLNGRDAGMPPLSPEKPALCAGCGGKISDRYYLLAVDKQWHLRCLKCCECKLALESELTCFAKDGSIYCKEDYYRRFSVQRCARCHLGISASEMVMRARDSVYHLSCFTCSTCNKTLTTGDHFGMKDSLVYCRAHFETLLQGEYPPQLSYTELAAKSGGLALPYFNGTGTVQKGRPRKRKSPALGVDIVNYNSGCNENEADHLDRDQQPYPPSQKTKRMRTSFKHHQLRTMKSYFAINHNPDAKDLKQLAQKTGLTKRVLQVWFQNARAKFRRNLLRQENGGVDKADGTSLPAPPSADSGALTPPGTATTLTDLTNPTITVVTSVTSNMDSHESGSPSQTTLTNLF
B3: Emerin (Homo sapiens), P50402 (parent)
chain: MDNYADLSDTELTTLLRRYNIPHGPVVGSTRRLYEKKIFEYETQRRRLSPPSSSAASSYSFSDLNSTRGDADMYDLPKKEDALLYQSKGYNDDYYEESYFTTRTYGEPESAGPSRAVRQSVTSFPDADAFHHQVHDDDLLSSSEEECKDRERPMYGRDSAYQSITHYRPVSASRSSLDLSYYPTSSSTSFMSSSSSSSSWLTRRAIRPENRAPGAGLGQDRQVPLWGQLLLFLVFVIVLFFIYHFMQAEEGNPF
partner: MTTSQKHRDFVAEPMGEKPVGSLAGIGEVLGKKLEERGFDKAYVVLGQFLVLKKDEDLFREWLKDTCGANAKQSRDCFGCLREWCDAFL
B4: U4/U6 small nuclear ribonucleoprotein Prp31 (Homo sapiens), Q8WWY3 (parent)
chain: MSLADELLADLEEAAEEEEGGSYGEEEEEPAIEDVQEETQLDLSGDSVKTIAKLWDSKMFAEIMMKIEEYISKQAKASEVMGPVEAAPEYRVIVDANNLTVEIENELNIIHKFIRDKYSKRFPELESLVPNALDYIRTVKELGNSLDKCKNNENLQQILTNATIMVVSVTASTTQGQQLSEEELERLEEACDMALELNASKHRIYEYVESRMSFIAPNLSIIIGASTAAKIMGVAGGLTNLSKMPACNIMLLGAQRKTLSGFSSTSVLPHTGYIYHSDIVQSLPPDLRRKAARLVAAKCTLAARVDSFHESTEGKVGYELKDEIERKFDKWQEPPPVKQVKPLPAPLDGQRKKRGGRRYRKMKERLGLTEIRKQANRMSFGEIEEDAYQEDLGFSLGHLGKSGSGRVRQTQVNEATKARISKTLQRTLQKQSVVYGGKSTIRDRSSGTASSVAFTPLQGLEIVNPQAAEKKVAEANQKYFSSMAEFLKVKGEKSGLMST
partner: B1 partner
B5: Low density lipoprotein receptor adapter protein 1 (Homo sapiens), Q5SW96 (parent)
chain: MDALKSAGRALIRSPSLAKQSWGGGGRHRKLPENWTDTRETLLEGMLFSLKYLGMTLVEQPKGEELSAAAIKRIVATAKASGKKLQKVTLKVSPRGIILTDNLTNQLIENVSIYRISYCTADKMHDKVFAYIAQSQHNQSLECHAFLCTKRKMAQAVTLTVAQAFKVAFEFWQVSKEEKEKRDKASQEGGDVLGARQDCTPSLKSLVATGNLLDLEETAKAPLSTVSANTTNMDEVPRPQALSGSSVVWELDDGLDEAFSRLAQSRTNPQVLDTGLTAQDMHYAQCLSPVDWDKPDSSGTEQDDLFSF
partner: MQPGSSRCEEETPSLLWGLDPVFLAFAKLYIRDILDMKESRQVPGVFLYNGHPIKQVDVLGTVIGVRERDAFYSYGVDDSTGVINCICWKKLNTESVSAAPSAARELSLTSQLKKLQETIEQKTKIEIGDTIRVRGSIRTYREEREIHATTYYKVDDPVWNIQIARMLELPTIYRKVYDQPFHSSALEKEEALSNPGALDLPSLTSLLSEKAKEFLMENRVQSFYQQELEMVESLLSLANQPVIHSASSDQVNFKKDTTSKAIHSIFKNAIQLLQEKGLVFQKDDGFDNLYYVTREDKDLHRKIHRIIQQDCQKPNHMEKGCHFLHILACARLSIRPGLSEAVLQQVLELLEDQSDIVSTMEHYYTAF

Variants of: B1
Settings: with kr108_human KRTAP10-8, P60410

effect of a mutation on the interaction	Variant
disrupting interaction strength	MHGGQGPLLLLLLLAVCLGAQGRNQEERLLADLMQNYDPNLRPAERDSDVVNVSLKLTLTNLISLNEREEALTTNVWIEMQWCDYRLRWDPRDYEGLWVLRVPSTMGWRPDIVLENKSQTYSTNEIDLQLSQEDGQTIEWIFIDPEAFTENGEWAIQHRPAKMLLDPAAPAQEAGHQKVVFYLLIQRKPLFYVINIIAPCVLISSVAILIHFLPAKAGGQKCTVAINVLLAQTVFLFLVAKKVPETSQAVPLISKYLTFLLVVTILIVVNAVVVLNVSLRSPHTHSMARGVRKVFLRLLPQLLRMHVRPLAPAAVQDTQSRLQNGSSGWSITTGEEVALCLPRSELLFQQWQRQGLVAAALEKLEKGPELGLSQFCGSLKQAAPAIQACVEACNLIACARHQQSHFDNGNEEWFLVGRVLDRVCFLAMLSLFICGTAGIFLMAHYNRVPALPFPGDPRPYLPSPD [V107G]

Variants of: B2
Settings: with lhx9_human LHX9, Q9NQ69

effect of a mutation on the interaction	Variant
with no effect	MEEKQILCVGLVVLDVISLVDKYPKEDSEIRCLSQRWQRGGNTSNSCTVLSLLGAPCAFMGSMAPGHVADFVLDDLRRYSVDLRYTVFQTTGSVPIATVIINEASGSRTILYYDRSLPDVSATDFEKVDLTQFKWIHIEGRNASEQVKMLQRIDAHNTRQPPEQKIRVSVEVEKPREELFQLFGYGDVVFVSKDVAKHLGFQSAEEALRGLYGRVRKGAVLVCAWAEEGADALGPDGKLLHSDAFPPPRVVDTLGAGDTFNASVIFSLSQGRSVQEALRFGCQVAGKKCGLQGFDGIV [A43T]
with no effect	MEEKQILCVGLVVLDVISLVDKYPKEDSEIRCLSQRWQRRGNASNSCTVLSLLGAPCAFMGSMAPGHVADFVLDDLRRYSVDLRYTVFQTTGSVPIATVIINEASGSRTILYYDRSLPDVSATDFEKVDLTQFKWIHIEGRNASEQVKMLQRIDAHNTRQPPEQKIRVSVEVEKPREELFQLFGYGDVVFVSKDVAKHLGFQSAEEALRGLYGRVRKGAVLVCAWAEEGADALGPDGKLLHSDAFPPPRVVDTLGAGDTFNASVIFSLSQGRSVQEALRFGCQVAGKKCGLQGFDGIV [G40R]

Variants of: B3
Settings: with baf_human BANF1, O75531

effect of a mutation on the interaction	Variant
with no effect	MDNYADLSDTELTTLLRRYNIPHGPVVGSTRRLYEKKIFEYETQRRRLSPPSSFAASSYSFSDLNSTRGDADMYDLPKKEDALLYQSKGYNDDYYEESYFTTRTYGEPESAGPSRAVRQSVTSFPDADAFHHQVHDDDLLSSSEEECKDRERPMYGRDSAYQSITHYRPVSASRSSLDLSYYPTSSSTSFMSSSSSSSSWLTRRAIRPENRAPGAGLGQDRQVPLWGQLLLFLVFVIVLFFIYHFMQAEEGNPF [S54F]
with no effect	MDNYADLSDTELTTLLRRYNIPHGPVVGSTRRLYEKKIFEYETQRRRLSPPSSSAASSYSFSDLNSTRGDADMYDLPKKEDALLYQSKGYNDDYYEESYFTTRTYGEPESAGPSRAVRQSVTSFPDADAFHHQVHDDDLLSSSEEECKDRERPMYGRDSAYQSITHYRPVSASRSSLDLSYYHTSSSTSFMSSSSSSSSWLTRRAIRPENRAPGAGLGQDRQVPLWGQLLLFLVFVIVLFFIYHFMQAEEGNPF [P183H]
with no effect	MDNYADLSDTELTTLLRRYNIPHGPVVGSTRRLYEKKIFEYETQRRRLSPPSSSAASSYSFSDLNSTRGDADMYDLPKKEDALLYQSKGYNDDYYEESYFTTRTYGEPESAGPSRAVRQSVTSFPDADAFHHQVHDDDLLSSSEEECKDRERPMYGRDSAYQSITHYRPVSASRSSLDLSYYTTSSSTSFMSSSSSSSSWLTRRAIRPENRAPGAGLGQDRQVPLWGQLLLFLVFVIVLFFIYHFMQAEEGNPF [P183T]
with no effect	MDNYADLSDTELTTLLRRYNIPHGPVVGSTRRLYEKKIFEYETQRRRLSPPSSSAASSYSFSDLNSTRGDAVMYDLPKKEDALLYQSKGYNDDYYEESYFTTRTYGEPESAGPSRAVRQSVTSFPDADAFHHQVHDDDLLSSSEEECKDRERPMYGRDSAYQSITHYRPVSASRSSLDLSYYPTSSSTSFMSSSSSSSSWLTRRAIRPENRAPGAGLGQDRQVPLWGQLLLFLVFVIVLFFIYHFMQAEEGNPF [D72V]

Variants of: B4
Settings: with kr108_human KRTAP10-8, P60410

effect of a mutation on the interaction	Variant
with no effect	MSLADELLADLEEAAEEEEGGSYGEEEEEPAIEDVQEETQLDLSGDSVKTIAKLWDSKMFAEIMMKIEEYISKQAKASEVMGPVEAAPEYRVIVDANNLTVEIENEVNIIHKFIRDKYSKRFPELESLVPNALDYIRTVKELGNSLDKCKNNENLQQILTNATIMVVSVTASTTQGQQLSEEELERLEEACDMALELNASKHRIYEYVESRMSFIAPNLSIIIGASTAAKIMGVAGGLTNLSKMPACNIMLLGAQRKTLSGFSSTSVLPHTGYIYHSDIVQSLPPDLRRKAARLVAAKCTLAARVDSFHESTEGKVGYELKDEIERKFDKWQEPPPVKQVKPLPAPLDGQRKKRGGRRYRKMKERLGLTEIRKQANRMSFGEIEEDAYQEDLGFSLGHLGKSGSGRVRQTQVNEATKARISKTLQRTLQKQSVVYGGKSTIRDRSSGTASSVAFTPLQGLEIVNPQAAEKKVAEANQKYFSSMAEFLKVKGEKSGLMST [L107V]

Variants of: B5
Settings: with stn1_human STN1, Q9H668

effect of a mutation on the interaction	Variant
with no effect	MDALKSAGRALIRSPSLAKQSWGGGGRHRKLPENWTDTRETLLEGMLFSLKYLGMTLVEQPKGEELSAAAIKRIVATAKASGKKLQKVTLKVSPRGIILTDNLTNQLIENVSIYRISYCTADKMHDKVFAYIAQSQHNQSLECHAFLCTKRKMAQAVTLTVAQAFKVAFEFWQVSKEEKEKRDKASQEGGDVLGARQDCTPSLKSLVATGNLLDLEETAKAPLSTVSANTTNMDEVPWPQALSGSSVVWELDDGLDEAFSRLAQSRTNPQVLDTGLTAQDMHYAQCLSPVDWDKPDSSGTEQDDLFSF [R238W]
